This passage reports Kd results from the Immune Epitope Database (IEDB).

Some results are limits rather than exact numbers.

In one assay the target is HLA-B*15:09. Nature of the assay: IEDB peptide-MHC binding, purified MHC/competitive/fluorescence; filed as Kd, often an IC50 or EC50 that approximates it; ≥ and ≤ were set here for values at or beyond the usual limits of such assays.
A further assay concerns the target HLA-B*51:01. Described as above. To be noted: source organism: Influenza A virus H3N2.
In another assay the target is HLA-B*46:01. The assay is described as follows: IEDB peptide-MHC binding, purified MHC/direct/fluorescence; filed as Kd, often an IC50 or EC50 that approximates it; ≥ and ≤ were set here for values at or beyond the usual limits of such assays.
A further assay concerns the target HLA-A*01:01. The description is as above.
Another assay deals with HLA-A*31:01. The assay is described as above.
In the next assay the target is HLA-B*07:02. The description is as above.
The target in assay [1] is HLA-B*08:01. Described as above. To be noted: source organism: Influenza A virus(A/swine/Shandong/fNY/2003(H9N2)).
The target in the next assay is HLA-B*57:01. The description is as above.
The next assay deals with HLA-B*40:01. The assay is described as above. To be noted: source organism: Influenza A virus (A/SW/MN/12883/00(H1N2)).
The target of the next assay is HLA-B*27:05. Described as above.
Assay [2] addresses HLA-A*02:01. The assay is described as above.
A further assay concerns the target HLA-B*15:01. Described as above.
Another assay has as its target HLA-B*58:01. Described as above.
The next assay has as its target HLA-A*11:01. The assay is described as above.
For a further assay, the target named is HLA-A*69:01. Described as above.
A further assay addresses HLA-B*18:01. The description is as above.
The target in another assay is HLA-A*26:01. The assay is described as above. To be noted: source organism: Influenza A virus(A/swine/Shandong/fNY/2003(H9N2)).
The target of assay [3] is HLA-B*48:01. The assay is described as above.
For assay [4], the target named is HLA-B*15:17. The assay is described as above.
In another assay the target is HLA-A*03:01. The description is as above.
The target of another assay is HLA-C*04:01. The description is as above.
The target of assay [5] is HLA-B*48:01. The assay is described as follows: IEDB peptide-MHC binding, purified MHC/competitive/fluorescence; filed as Kd, often an IC50 or EC50 that approximates it; ≥ and ≤ were set here for values at or beyond the usual limits of such assays. To be noted: source organism: Cryptosporidium parvum Iowa II.
For another assay, the target named is HLA-C*08:02. The assay is described as follows: IEDB peptide-MHC binding, purified MHC/direct/fluorescence; filed as Kd, often an IC50 or EC50 that approximates it; ≥ and ≤ were set here for values at or beyond the usual limits of such assays. To be noted: source organism: human gammaherpesvirus 4.
In assay [6] the target is HLA-A*68:02. Nature of the assay: IEDB peptide-MHC binding, purified MHC/competitive/fluorescence; filed as Kd, often an IC50 or EC50 that approximates it; ≥ and ≤ were set here for values at or beyond the usual limits of such assays. As to conditions: source organism: Escherichia coli 536.
Assay [7] deals with HLA-A*02:01. The assay is described as above. As to conditions: source organism: Escherichia coli 536.
In the next assay the target is HLA-A*26:02. Described as above. To be noted: source organism: Escherichia coli 536.
Another assay concerns the target HLA-B*39:01. The assay is described as above.
In assay [8] the target is HLA-B*15:17. The description is as above. To be noted: source organism: Escherichia coli 536.
The target in assay [9] is HLA-B*08:01. The description is as above. To be noted: source organism: Vibrio vulnificus YJ016.
A further assay deals with HLA-A*02:06. Described as above. As to conditions: source organism: Vibrio vulnificus YJ016.
For assay [10], the target named is HLA-A*68:02. The assay is described as follows: IEDB peptide-MHC binding, purified MHC/direct/fluorescence; filed as Kd, often an IC50 or EC50 that approximates it; ≥ and ≤ were set here for values at or beyond the usual limits of such assays. To be noted: source organism: Vibrio vulnificus YJ016.
In a further assay the target is HLA-A*24:03. Described as above. To be noted: source organism: Vibrio vulnificus YJ016.
In a further assay the target is HLA-A*26:03. The description is as above. To be noted: source organism: Vibrio vulnificus YJ016.
In another assay the target is HLA-A*24:02. The description is as above. As to conditions: source organism: Vibrio vulnificus YJ016.
For the next assay, the target named is HLA-B*08:02. Described as above. As to conditions: source organism: Vibrio vulnificus YJ016.
The next assay concerns the target HLA-A*23:01. The assay is described as above. To be noted: source organism: Vibrio vulnificus YJ016.
The mark [11] stands for this setting: source organism: Influenza A virus (A/SW/MN/12883/00(H1N2)).
Where [12] appears, read: source organism: Escherichia coli 536.
The mark [13] stands for this setting: source organism: Escherichia coli O157:H7.
[14] abbreviates: source organism: Vibrio vulnificus YJ016.

As a reminder, the Kd is the constant that tells how readily two partners part at equilibrium. As for FPNEVGARI, the Kd is 1.13 µM with HLA-B*15:09 (source organism: Influenza A virus H3N2); 0.352 µM with HLA-B*51:01; at least 20 µM in the assay with HLA-B*46:01 (setting [11]); at least 20 µM in the assay with HLA-A*01:01 (setting [11]); at least 20 µM in the assay with HLA-A*31:01 (setting [11]); 0.066 µM with HLA-B*07:02 (setting [11]). Besides, the Kd with HLA-B*08:01 [1] is 3.05 µM; in the assay with HLA-B*57:01 (setting [11]), at least 20 µM; with HLA-B*40:01, at least 20 µM; with HLA-B*27:05 (setting [11]), at least 20 µM; with HLA-A*02:01 [2] (setting [11]) it was at least 20 µM; in the assay with HLA-B*15:01 (setting [11]), at least 20 µM. Also, the Kd with HLA-B*58:01 (setting [11]) is at least 20 µM; with HLA-A*11:01 (setting [11]), at least 20 µM; with HLA-A*69:01 (setting [11]), 0.0038 µM; with HLA-B*18:01 (setting [11]), at least 20 µM; in the assay with HLA-A*26:01, at least 20 µM; with HLA-B*48:01 [3] (setting [11]) it was at least 20 µM. Besides, the Kd with HLA-B*15:17 [4] (setting [11]) and in the assay with HLA-A*03:01 (setting [11]) was at least 20 µM in each case.

The sequence IQNDLITEF gave a Kd in the assay with HLA-C*04:01 (source organism: Vaccinia virus Copenhagen) of at least 20 µM.

The sequence IQNEIMKPL gave a Kd with HLA-B*48:01 [5] of 0.502 µM.

Turning to RSDEYVAYY, the values for the Kd with HLA-C*08:02 and with HLA-C*04:01 (source organism: human gammaherpesvirus 4) were 0.481 µM and at least 20 µM, respectively.

VMAASGAPF: the Kd in the assay with HLA-A*68:02 [6] was at least 20 µM; with HLA-B*15:09 (setting [12]) it was at least 20 µM; in the assay with HLA-A*02:01 [7], at least 20 µM; with HLA-A*26:02, at least 20 µM; with HLA-B*39:01 (setting [12]) it was at least 20 µM; with HLA-B*15:17 [8] it was 0.214 µM. Besides, the dissociation constant Kd with HLA-B*46:01 (setting [13]) was 1.34 µM; in the assay with HLA-A*01:01 (setting [13]), at least 20 µM; with HLA-A*31:01 (setting [13]) it was at least 20 µM; with HLA-B*07:02 (setting [13]), 0.149 µM; with HLA-B*57:01 (setting [13]) it was at least 20 µM; with HLA-B*27:05 (setting [13]), at least 20 µM. In addition, the Kd was 0.019 µM in the assay with HLA-B*15:01 (setting [13]), at least 20 µM in the assay with HLA-A*11:01 (setting [13]), at least 20 µM in the assay with HLA-A*69:01 (setting [13]) and at least 20 µM in the assay with HLA-B*48:01 [3] (setting [13]).

Regarding WHQARFEEL, the Kd with HLA-B*08:01 [9] is at least 20 µM; with HLA-B*15:09 (setting [14]), 0.0229 µM; in the assay with HLA-A*02:06, at least 20 µM; in the assay with HLA-B*39:01 (setting [14]) it was 0.0179 µM; in the assay with HLA-A*01:01 (setting [14]), at least 20 µM; with HLA-A*31:01 (setting [14]) it was at least 20 µM. The Kd with HLA-A*68:02 [10] is at least 20 µM; with HLA-B*07:02 (setting [14]), at least 20 µM; with HLA-A*24:03, 0.145 µM; with HLA-B*57:01 (setting [14]) it was at least 20 µM; in the assay with HLA-A*26:03 it was at least 20 µM; with HLA-B*27:05 (setting [14]), at least 20 µM. Further, the Kd is at least 20 µM in the assay with HLA-A*02:01 [2] (setting [14]); 8.8 µM in the assay with HLA-A*24:02; at least 20 µM in the assay with HLA-B*08:02; at least 20 µM in the assay with HLA-B*15:01 (setting [14]); at least 20 µM in the assay with HLA-B*58:01 (setting [14]); at least 20 µM with HLA-A*11:01 (setting [14]). Moreover, the Kd with HLA-A*69:01 (setting [14]) is at least 20 µM; with HLA-A*23:01 it was 1.7 µM; with HLA-B*18:01 (setting [14]) it was at least 20 µM; with HLA-B*15:17 [4] (setting [14]), at least 20 µM; with HLA-A*03:01 (setting [14]) it was at least 20 µM.

WYDWQQVPF showed a Kd in the assay with HLA-C*04:01 (source organism: West Nile virus) of 0.007 µM.
